According to paper PMC9777161 (2022):
Residue numbers refer to the chain shown, from its start. One block for each binder: values may come before it.

Key:
[1] = molecular target: T1, Cytochrome c oxidase (Bos taurus, UniProt P68530); experiment: laser flash photolysis
T1 chain: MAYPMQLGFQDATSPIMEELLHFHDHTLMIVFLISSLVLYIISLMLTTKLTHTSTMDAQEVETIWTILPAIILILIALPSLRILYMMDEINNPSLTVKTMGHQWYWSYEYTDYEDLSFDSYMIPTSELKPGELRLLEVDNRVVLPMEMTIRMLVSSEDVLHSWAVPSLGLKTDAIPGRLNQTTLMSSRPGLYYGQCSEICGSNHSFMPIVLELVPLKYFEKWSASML

[2] = molecular target: T2, Cytochrome c oxidase (Bos taurus, UniProt P68530); experiment: analytical ultracentrifugation
T2 chain: T1 chain with E89T

[3] = molecular target: T1, Cytochrome c oxidase; experiment: analytical ultracentrifugation

- Kd [1]: 8 µM
B1: Ru-39-Cytochrome c (protein)
chain: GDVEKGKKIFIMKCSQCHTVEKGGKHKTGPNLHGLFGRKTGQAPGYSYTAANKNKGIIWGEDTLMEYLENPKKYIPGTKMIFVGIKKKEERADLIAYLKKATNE
modifications: (dimethylbipyridine)(bisbipyridine)ruthenium at Cys-39

- Kd [2]: 2.1 µM
- Kd [3]: 4.7 µM
B2: Cytochrome c (protein)
chain: not shown

- Kd [3]: 28.4 µM
B3: Cytochrome c (protein)
chain: not shown
